{"source": "patent US20080227698A1", "about": "“OLIGOPEPTIDES FOR TREATMENT OF OSTEOPOROSIS AND OTHER BONE DISEASES AND METHODS THEREOF” (Washington University, priority 2005, published 2008)", "molecules": {"B1": {"name": "recombinant mouse Mesd protein (wild type) (other, not shown: small tags and cut ends)", "chain": "ADTPGEATPPPRKKKDIRDYNDADMARLLEQWEKDDDIEEGDLPEHKRPSAPIDFSKLDPGKPESILKMTKKGKTLMMFVTVSGNPTEKETEEITSLWQGSLFNANYDVQRFIVGSDRAIFMLRDGSYAWEIKDFLVSQDRCAEVTLEGQMYPGKGGGSKEKNKTKPEKAKKKEGDRKPRASKEDNRAGSRREDL", "modifications": "125I-iodinated (IODO-GEN) when used as radioligand", "notes": "Made in E. coli from full-length mouse Mesd cDNA; also called wild type Mesd"}, "B2": {"name": "Mesd(12-155) (other, not shown: small tags and cut ends)", "chain": "RKKKDIRDYNDADMARLLEQWEKDDDIEEGDLPEHKRPSAPIDFSKLDPGKPESILKMTKKGKTLMMFVTVSGNPTEKETEEITSLWQGSLFNANYDVQRFIVGSDRAIFMLRDGSYAWEIKDFLVSQDRCAEVTLEGQMYPGK", "modifications": "125I-iodinated when used as radioligand", "notes": "also called truncated Mesd mutant lacking both the N-terminal and C-terminal regions"}}, "key": {"[1]": {"target": "LRP5 (Homo sapiens, UniProt O75197)", "sequence (O75197 32-1615)": "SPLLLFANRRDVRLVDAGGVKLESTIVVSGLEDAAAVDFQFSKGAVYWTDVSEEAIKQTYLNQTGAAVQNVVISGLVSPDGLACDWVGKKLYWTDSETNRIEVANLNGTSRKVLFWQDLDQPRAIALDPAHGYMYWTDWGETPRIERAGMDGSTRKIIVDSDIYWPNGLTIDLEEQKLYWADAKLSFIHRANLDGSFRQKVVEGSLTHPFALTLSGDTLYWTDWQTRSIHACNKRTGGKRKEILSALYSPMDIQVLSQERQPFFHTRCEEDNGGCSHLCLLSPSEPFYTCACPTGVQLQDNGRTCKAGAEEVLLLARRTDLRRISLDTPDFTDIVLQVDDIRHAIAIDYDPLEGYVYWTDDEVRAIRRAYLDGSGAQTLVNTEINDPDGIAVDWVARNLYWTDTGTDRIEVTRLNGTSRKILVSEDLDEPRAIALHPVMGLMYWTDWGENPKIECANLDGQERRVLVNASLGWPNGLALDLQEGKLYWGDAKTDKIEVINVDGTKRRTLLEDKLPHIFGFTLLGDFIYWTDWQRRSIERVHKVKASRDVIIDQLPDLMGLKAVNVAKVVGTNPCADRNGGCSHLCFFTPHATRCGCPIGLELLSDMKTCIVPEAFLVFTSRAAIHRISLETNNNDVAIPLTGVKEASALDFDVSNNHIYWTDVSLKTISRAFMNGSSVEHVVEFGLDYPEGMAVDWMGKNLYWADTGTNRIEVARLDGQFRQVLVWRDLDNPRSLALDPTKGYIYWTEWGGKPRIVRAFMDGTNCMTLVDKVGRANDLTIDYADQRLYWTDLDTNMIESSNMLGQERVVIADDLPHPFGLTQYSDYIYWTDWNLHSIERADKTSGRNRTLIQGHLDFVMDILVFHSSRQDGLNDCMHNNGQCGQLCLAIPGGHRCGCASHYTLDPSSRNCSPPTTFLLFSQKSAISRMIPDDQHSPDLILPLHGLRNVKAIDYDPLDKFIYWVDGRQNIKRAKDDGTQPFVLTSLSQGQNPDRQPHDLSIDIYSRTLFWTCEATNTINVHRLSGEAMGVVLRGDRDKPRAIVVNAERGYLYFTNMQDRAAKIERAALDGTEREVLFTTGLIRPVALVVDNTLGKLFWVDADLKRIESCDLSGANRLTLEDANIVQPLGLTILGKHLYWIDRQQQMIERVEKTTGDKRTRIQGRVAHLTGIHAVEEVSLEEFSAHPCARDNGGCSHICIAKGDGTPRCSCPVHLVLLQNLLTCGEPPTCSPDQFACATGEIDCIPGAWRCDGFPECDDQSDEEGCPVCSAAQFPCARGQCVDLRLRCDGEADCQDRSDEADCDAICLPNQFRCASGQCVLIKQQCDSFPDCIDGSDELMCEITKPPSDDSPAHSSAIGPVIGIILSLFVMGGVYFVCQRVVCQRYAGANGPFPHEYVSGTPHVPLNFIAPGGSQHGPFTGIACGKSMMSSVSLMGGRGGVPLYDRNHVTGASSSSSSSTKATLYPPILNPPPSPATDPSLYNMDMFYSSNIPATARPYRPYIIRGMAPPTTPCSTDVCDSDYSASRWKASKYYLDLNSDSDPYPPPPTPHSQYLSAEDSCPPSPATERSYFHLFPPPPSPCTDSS", "experiment": "^125I-DKK1 binding to LRP5, competition by Mesd or oligopeptide (FIG. 10B)", "experimental": "(§1) In order to investigate the binding of Mesd polypeptide and an Mesd oligopeptide to either LRP5 or LRP6, binding assays were performed using ^125I-Mesd or ^125I-DKK1 (FIG. 10)."}, "[2]": {"system": "ST-2 cells", "experiment": "Alkaline phosphatase activity in ST-2 cells infected with DKK1 retrovirus", "format": "cell-based", "settings": "increasing amounts of oligopeptide; non-transfected cells approximately 0.14 units, DKK1-infected cells about 0.02 units", "from_the_text": "Osteoblasts are cells which build bone. One marker for osteoblast activity is the cell surface enzyme alkaline phosphatase (AP). ST-2 cells are an osteoblast-derived cell line which provides an in vitro model system for studying osteoblast activity. […] Treatment of the transfected cells with increasing amounts of a Mesd oligopeptide having sequence"}, "[3]": {"target": "LRP6 (Homo sapiens, UniProt O75581)", "sequence (O75581 20-1613)": "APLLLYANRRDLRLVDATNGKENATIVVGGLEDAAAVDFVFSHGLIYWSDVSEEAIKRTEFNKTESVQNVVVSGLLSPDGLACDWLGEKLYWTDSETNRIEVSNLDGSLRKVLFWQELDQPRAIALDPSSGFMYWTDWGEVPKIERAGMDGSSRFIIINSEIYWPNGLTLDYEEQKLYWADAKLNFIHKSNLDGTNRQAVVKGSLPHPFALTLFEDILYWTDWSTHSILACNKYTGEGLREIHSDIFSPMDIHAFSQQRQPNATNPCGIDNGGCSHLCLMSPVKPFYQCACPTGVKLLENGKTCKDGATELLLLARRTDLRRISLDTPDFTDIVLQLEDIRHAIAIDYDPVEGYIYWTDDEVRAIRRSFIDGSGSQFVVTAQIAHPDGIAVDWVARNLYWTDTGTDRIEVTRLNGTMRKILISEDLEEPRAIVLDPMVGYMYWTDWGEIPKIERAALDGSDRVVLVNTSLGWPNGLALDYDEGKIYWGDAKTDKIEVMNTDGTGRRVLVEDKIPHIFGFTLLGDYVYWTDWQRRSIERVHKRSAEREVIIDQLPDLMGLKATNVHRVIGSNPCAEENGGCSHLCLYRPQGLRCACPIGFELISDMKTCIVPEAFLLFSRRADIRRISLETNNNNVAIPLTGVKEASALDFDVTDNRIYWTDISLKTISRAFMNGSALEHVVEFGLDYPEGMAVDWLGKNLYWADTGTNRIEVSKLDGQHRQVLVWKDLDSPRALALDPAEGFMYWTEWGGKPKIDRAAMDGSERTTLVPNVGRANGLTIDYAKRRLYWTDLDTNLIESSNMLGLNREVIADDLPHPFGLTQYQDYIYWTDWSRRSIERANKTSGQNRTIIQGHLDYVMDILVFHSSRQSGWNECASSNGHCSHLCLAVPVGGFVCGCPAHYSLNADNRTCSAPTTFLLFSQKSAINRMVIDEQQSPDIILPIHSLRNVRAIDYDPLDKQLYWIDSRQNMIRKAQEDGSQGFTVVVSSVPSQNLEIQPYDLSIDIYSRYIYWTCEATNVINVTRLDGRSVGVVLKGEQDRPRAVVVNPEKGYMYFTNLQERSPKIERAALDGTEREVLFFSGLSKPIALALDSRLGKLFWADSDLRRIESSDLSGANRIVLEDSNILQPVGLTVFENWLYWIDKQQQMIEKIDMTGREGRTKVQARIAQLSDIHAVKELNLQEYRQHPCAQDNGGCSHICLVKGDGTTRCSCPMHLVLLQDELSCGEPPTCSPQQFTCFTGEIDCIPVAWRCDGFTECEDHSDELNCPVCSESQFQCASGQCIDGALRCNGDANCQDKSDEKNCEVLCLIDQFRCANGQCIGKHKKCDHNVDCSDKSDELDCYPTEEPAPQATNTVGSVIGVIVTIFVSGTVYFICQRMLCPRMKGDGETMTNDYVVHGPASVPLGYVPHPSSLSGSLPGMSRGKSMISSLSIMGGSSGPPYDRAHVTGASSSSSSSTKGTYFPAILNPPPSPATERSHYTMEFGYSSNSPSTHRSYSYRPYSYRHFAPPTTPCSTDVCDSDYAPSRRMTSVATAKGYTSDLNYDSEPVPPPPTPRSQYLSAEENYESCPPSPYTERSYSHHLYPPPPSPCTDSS", "experiment": "^125I-Mesd binding to LRP6, competition by Mesd or oligopeptide (FIG. 10C)", "design": "plasmid pCS-Myc-hLRP6 containing the full-length human LRP6 cDNA; HA; expressed in transfected cells; host or cells: human HT1080 cells, stably transduced (pLNCX2 retroviral vector)", "settings": "compared with LRP5 (up to about 10-fold)", "experimental": "as §1"}, "[4]": {"target": "T1, LRP6 on LRP6-transduced HT1080 cells (HA-tagged) (UniProt O75581 20-1613, limits assumed)", "T1 construct": "whole, on cells; also called mature LRP6; cell surface LRP6", "T1 sequence (O75581 20-1613 limits assumed)": "as the sequence (O75581 20-1613) above", "experiment": "competition against 125I-DKK1 for LRP6 (FIG. 10D)"}, "[5]": {"target": "T2, human Myc-tagged LRP5 on transiently transfected HEK293 cells (human, UniProt O75197 32-1615)", "T2 construct": "whole, on cells; also called mature LRP5; pcDNA3.1C-Myc-hLRP5", "T2 sequence (O75197 32-1615)": "as the sequence (O75197 32-1615) above", "experiment": "competition against 125I-Mesd for LRP5 (FIG. 10A)"}, "[6]": {"target": "T1, LRP6 on LRP6-transduced HT1080 cells …", "experiment": "Scatchard analysis of 125I-Mesd saturation binding to LRP6-transduced HT1080 cells, 3 h at 4 C", "from_the_text": "(C) Scatchard plots of data in B. All values are the average of triple determinations with the s.d. indicated by error bars."}, "[7]": {"target": "T3, human VLDLR on stably transfected LRP-null CHO cells (human, UniProt P98155 28-873)", "T3 construct": "whole, on cells", "experiment": "125I-Mesd binding to stably transfected LRP-null CHO cells, 4 h at 4 C, with or without 500 nM Mesd"}, "[8]": {"target": "T4, human apoER2 on stably transfected LRP-null CHO cells (human, UniProt Q14114 33-963)", "T4 construct": "whole, on cells", "T4 sequence (looked up)": "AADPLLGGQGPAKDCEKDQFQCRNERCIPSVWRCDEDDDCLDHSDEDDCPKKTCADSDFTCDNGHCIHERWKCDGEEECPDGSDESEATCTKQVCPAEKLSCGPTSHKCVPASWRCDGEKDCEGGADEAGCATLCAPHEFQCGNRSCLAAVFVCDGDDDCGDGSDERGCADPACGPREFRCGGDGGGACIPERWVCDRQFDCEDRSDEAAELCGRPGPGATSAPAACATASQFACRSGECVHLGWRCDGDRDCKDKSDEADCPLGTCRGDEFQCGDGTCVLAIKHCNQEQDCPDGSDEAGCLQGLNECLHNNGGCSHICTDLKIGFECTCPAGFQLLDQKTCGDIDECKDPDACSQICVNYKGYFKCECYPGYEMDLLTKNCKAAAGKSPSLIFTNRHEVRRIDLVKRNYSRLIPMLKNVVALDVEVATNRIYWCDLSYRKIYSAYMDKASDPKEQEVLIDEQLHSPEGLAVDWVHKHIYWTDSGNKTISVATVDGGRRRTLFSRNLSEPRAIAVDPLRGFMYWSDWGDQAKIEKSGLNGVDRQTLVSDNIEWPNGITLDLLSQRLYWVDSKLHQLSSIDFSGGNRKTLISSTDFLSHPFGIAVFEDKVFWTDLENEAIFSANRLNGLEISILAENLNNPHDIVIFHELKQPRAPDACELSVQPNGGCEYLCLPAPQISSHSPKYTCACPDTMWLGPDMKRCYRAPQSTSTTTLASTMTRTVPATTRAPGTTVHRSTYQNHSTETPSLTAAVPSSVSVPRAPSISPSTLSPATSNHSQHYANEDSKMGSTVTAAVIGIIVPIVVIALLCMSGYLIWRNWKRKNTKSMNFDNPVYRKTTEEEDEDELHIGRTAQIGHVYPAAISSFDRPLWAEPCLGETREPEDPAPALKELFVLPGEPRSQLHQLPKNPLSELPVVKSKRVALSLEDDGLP", "experiment": "125I-Mesd binding to stably transfected LRP-null CHO cells, 4 h at 4 C, with or without 500 nM Mesd"}, "[9]": {"target": "T1, LRP6 on LRP6-transduced HT1080 cells …", "experiment": "binding of truncated Mesd mutants to cell surface LRP6 (FIG. 3B)"}}, "data": [{"molecule": "KGGGSKEKNKTKPEKAKKKEGDPKPRASKEDNRAGSR [SEQ ID NO: 20]", "values": [{"measurement": "Reduction in binding of ^125I-DKK1 to LRP5", "setting": "[1]", "result": "small but significant reduction"}, {"measurement": "Alkaline phosphatase (AP) activity", "setting": "[2]", "result": "increasing levels of AP activity"}, {"measurement": "Reduction of binding of ^125I-Mesd to LRP6", "setting": "[3]", "result": "even greater reduction"}]}, {"molecule": "B1", "values": [{"measurement": "fold reduction of ^125I-DKK1 binding", "setting": "[4]", "result": "> 2", "unit": "fold"}, {"measurement": "fold reduction of ^125I-Mesd binding", "setting": "[5]", "result": "~10", "unit": "fold"}, {"measurement": "Kd", "setting": "[6]", "result": "~3.3", "unit": "nM"}, {"measurement": "binding result", "setting": "[7]", "result": "no binding (tested: 5 nM 125I-Mesd)"}, {"measurement": "binding result", "setting": "[8]", "result": "no binding (tested: 5 nM 125I-Mesd)"}]}, {"molecule": "B2", "values": [{"measurement": "binding result", "setting": "[9]", "result": "no binding"}]}]}
